Experimental data: patent publication US11618906B2, “Hydroxylation techniques” (HYPHA DISCOVERY LTD., priority 2018, dated 2023)
Positions count from the first letter of the chain named. Numbers in names are those of the source.

B1: aluC09M24: cytochrome P450 aluC09 double mutant T291E, A47I; amino acid sequence SEQ ID NO: 84 (protein, listed as Amycolatopsis lurida)
chain: MTDVEETTATLPLARKCPFSPPPEYERLRRESPVSRVGLPSGQTAWILTRLEDIREMLSSPHFSSDRQSPSFPLMVARQIRREDKPFRPSLIAMDPPEHSRARRDVVGEFTVKRMKALQPRIQQIVDEHLDALLAGPKPADLVQALSLPVPSLVICELLGVPYSDHEFFQSCSSRMLSREVTAEERMTAFEQLENYLDELVTKKEANATEDDLLGRQILKQRETGEADHGELVGLAFLLLIAGHETTANMISLGTVTLLENPDQLAKIKADPGKTLAAIEELLRVFTIAEEATSRFATADVEIGGTLIRAGEGVVGLSNAGNHDPDGFENPDTFDIERGARHHVAFGFGVHQCLGQNLARLELQIVFDTLFRRVPGLRIAVPVDELPFKHDSTIYGLHALPVTW
B2: aluC09M20: cytochrome P450 aluC09 mutant T291V; amino acid sequence SEQ ID NO: 28 (protein, listed as Amycolatopsis lurida)
chain: B1 chain with I47A, E291V
B3: aluC09M30: cytochrome P450 aluC09 double mutant T291E, V315L; amino acid sequence SEQ ID NO: 108 (protein, listed as Amycolatopsis lurida)
chain: B1 chain with I47A, V315L
B4: aluC09M18: cytochrome P450 aluC09 mutant T291Q; amino acid sequence SEQ ID NO: 20 (protein, listed as Amycolatopsis lurida)
chain: B1 chain with I47A, E291Q
B5: aluC09M21: cytochrome P450 aluC09 mutant T291Y; amino acid sequence SEQ ID NO: 32 (protein, listed as Amycolatopsis lurida)
chain: B1 chain with I47A, E291Y

Assay: Hydroxylation of aceclofenac catalysed by cytochrome P450 aluC09 and mutants
Format: biochemical
Details: % by UV peak area at 275 nm; 0.125 mg/ml substrate, 27° C., 16-20 hours
Description: (§1) Lyophilised material of mutants of CYP450aluC09, ferredoxinaluF03 and ferredoxin reductaseSCF15A was made as described in examples 3 and 4 and suspended in water (0.5 mL per vial) and biocatalysis was performed at 27° C. in the following conditions: 50 mM potassium phosphate pH 7.4, 5 mM MgCl2, 0.125 mg/ml substrate compound such as diclofenac (Sigma-Aldrich, UK), Aceclofenac (Tokyo Chemical Industry UK Ltd, UK), Indomethacin (Sigma-Aldrich, UK), Flufenamic acid (Sigma-Aldrich, UK), Napropamide (Sigma-Aldrich, UK), celecoxib (LC Laboratories, USA), valsartan (Tokyo Chemical Industry UK Ltd, UK), ruxolitinib (LC Laboratories, USA), 4-pyrrolidylacetophenone (Sigma-Aldrich, UK), tofacitinib (LC Laboratories, USA), bosentan (CarboSynth Ltd, UK), buparvaquone (MedChemtronica, Sweden), BIRB796 (Stratech Scientific Limited, UK), epothilone B (LC Laboratories, USA), ritonavir (Tokyo Chemical Industry UK Ltd, UK) or tivantinib (MedChemtronica, Sweden), P450AluC09 (concentration as in Table 8), 5 mM G6P, 1 mM NADP, 2 UN/ml G6PDH in a final volume of 100 μL. After 16-20 hours at 200 rpm (5 cm orbital shaker, Kuhner AG, Switzerland), reactions were extracted with an equal volume of acetonitrile, centrifuged to remove precipitated proteins and conversion assessed by UPLC-MS analysis.
(§2) UPLC data was obtained as follows:
(§3) Column: Acquity UPLC BEH Shield RP18 1.7 μm 2.1 mm i.d. 50 mm length
(§4) Solvents: H2O, B: Acetonitrile, both with 0.1% Formic acid
(§5) Detector: Waters Acquity UPLC PDA (UV-Vis detection) and Waters Acquity UPLC QDA (MS)
Chromatograms are provided in FIGS. 5a-c; aceclofenac elutes at 1.80 minutes, hydroxy-aceclofenac acid 1 elutes at 1.64 minutes, hydroxy-aceclofenac acid 2 elutes at 1.60 minutes and dihydroxy-aceclofenac elutes at 1.42 minutes.

In order of rising “Aceclofenac (Substrate) (1.80 mins)” value:
1. B2  4.2%
2. B4  10.2%
3. B3  24.1%
4. B1  63.4%

In order of rising “Dihydroxy-Aceclofenac (1.42 mins)” value:
1. B1  5.0%
2. B3  18.4%
3. B2  35.1%
4. B4  49.1%

In order of rising “Hydroxy-Aceclofenac (1) (1.64 min)” value:
1. B4  5.9%
2. B1  14.3%
3. B3  15.0%
4. B2  33.1%

In order of rising “Hydroxy-Aceclofenac (2) (1.60 min)” value:
1. B1  17.4%
2. B2  27.6%
3. B4  34.9%
4. B3  42.5%

Same assay, conditions: aceclofenac; ratio of UV peak areas at 275 nm

In order of falling “Hydroxylated Ratio 2:1” value:
1. B4  5.9
2. B3  2.8
3. B1  1.2
4. B2  0.8

Assay: Metabolism of 4-pyrrolidylacetophenone by P450 aluC09 and mutants
Format: biochemical
Details: percent of substrate being converted; 0.125 mg/ml, 27° C., 16-20 hours; [CYP] per enzyme as in Table 8
Description: as §1
(§6) However, of particular note when considering P450 concentration are the results for mutants M12, M20 and M34, as well as the deleterious impact on the range of substrate utility in mutants M39 and M40.

In order of rising “% conversions (avg) 4-pyrrolidylacetophenone” value:
1. B1  7.6%
2. B4  14.1%
3. B5  15.8%
4. B3  16.6%

Assay: Metabolism of BIRB796 by P450 aluC09 and mutants
Format: biochemical
Details: percent of substrate being converted; 0.125 mg/ml, 27° C., 16-20 hours; [CYP] per enzyme as in Table 8
Description: as §1, §6

In order of falling “% conversions (avg) BIRB796” value:
1. B4  24.3%
2. B2  22.4%
3. B1  18.9%
4. B3  18%

Assay: Metabolism of tivantinib by P450 aluC09 and mutants
Format: biochemical
Details: percent of substrate being converted; 0.125 mg/ml, 27° C., 16-20 hours; [CYP] per enzyme as in Table 8
Description: as §1, §6

In order of falling “% conversions (avg) Tivantinib” value:
1. B4  59.7%
2. B5  29.6%
3. B2  22.2%
4. B1  6.8%
5. B3  2.7%

Assay: Metabolism of tofacitinib by P450 aluC09 and mutants
Format: biochemical
Details: percent of substrate being converted; 0.125 mg/ml, 27° C., 16-20 hours; [CYP] per enzyme as in Table 8
Description: as §1, §6

In order of rising “% conversions (avg) Tofacitinib” value:
1. B1  0%
2. B3  0%
3. B4  2.2%
4. B5  2.7%
5. B2  4.5%

Assay: Metabolism of valsartan by P450 aluC09 and mutants
Format: biochemical
Details: percent of substrate being converted; 0.125 mg/ml, 27° C., 16-20 hours; [CYP] per enzyme as in Table 8
Description: as §1, §6

In order of falling “% conversions (avg) Valsartan” value:
1. B4  27.1%
2. B1  21.2%
3. B3  20%
4. B5  19%
5. B2  13.1%

Assay: Hydroxylation of flufenamic acid catalysed by cytochrome P450 aluC09 and mutants
Format: biochemical
Details: % by UV peak area at 275 nm; 0.125 mg/ml substrate, 27° C., 16-20 hours
Description: as §1, §2, §3, §4, §5
Flufenamic acid elutes at 1.93 minutes, hydroxy-flufenamic acid 1 elutes at 1.68 minutes and hydroxy-flufenamic acid 2 elutes at 1.65 minutes.

In order of rising “Flufenamic Acid (Substrate) 1.93 mins” value:
1. B4  86.1%
2. B1  89.2%
3. B2  93.6%
4. B3  93.8%

In order of falling “Hydroxy-Flufenamic Acid (1) 1.69 mins” value:
1. B4  9.1%
2. B1  7.7%
3. B2  4.4%
4. B3  3.7%

In order of rising “Hydroxy-Flufenamic Acid (2) 1.65 mins” value:
1. B2  2.0%
2. B3  2.4%
3. B1  3.1%
4. B4  4.8%

Same assay, conditions: flufenamic acid; ratio of UV peak areas at 275 nm

In order of falling “Hydroxylated Ratio 1:2” value:
1. B1  2.5
2. B2  2.2
3. B4  1.9
4. B3  1.5

Assay: O-demethylation of indomethacin catalysed by cytochrome P450 aluC09 and mutants
Format: biochemical
Details: % by UV peak area at 275 nm; 0.125 mg/ml substrate, 27° C., 16-20 hours
Description: as §1, §2, §3, §4, §5

In order of falling “Indomethacin (1.74 mins)” value:
1. B1  94.2%
2. B3  90.1%
3. B2  89.2%
4. B4  83.6%

In order of rising “O-demethyl-Indomethacin (1.52 mins)” value:
1. B1  5.8%
2. B3  9.9%
3. B2  10.8%
4. B4  16.4%

Assay: Metabolism of bosentan by P450 aluC09 and mutants
Format: biochemical
Details: percent of substrate being converted; 0.125 mg/ml, 27° C., 16-20 hours; [CYP] per enzyme as in Table 8
Description: as §1, §6

In order of falling “% conversions (avg) Bosentan” value:
1. B1  100%
2. B4  100%
3. B3  80.4%
4. B5  59%

Assay: Hydroxylation of diclofenac catalysed by cytochrome P450 aluC09 and mutants (UPLC-PDA-MS)
Format: biochemical
Details: % by UV peak area at 275 nm; 0.125 mg/ml substrate, 27° C., 16-20 hours
Description: as §1, §2, §3, §4, §5
Illustrative results for the hydroxylation of diclofenac by CYP450aluC09 and selected T291x mutants are summarised below in Table 3 with representative chromatograms resented in FIG. 3a-c; retention times: diclofenac 1.85-1.88 minutes, 5-hydroxydiclofenac 1.60-1.63 minutes, 4′-hydroxydiclofenac 1.65-1.68 minutes, 4′,5-dihydroxydiclofenac 1.40-1.42 minutes. The chromatographic retention times and mass spectra coincided with those of authentic samples.

In order of falling “4′,5-dihydroxy-diclofenac 1.38 mins” value:
1. B3  3.6%
2. B2  3.1%
3. B4  1.9%
4. B1  1.8%

In order of falling “4′-hydroxy-diclofenac (1) 1.62 mins” value:
1. B2  50.1%
2. B4  45.5%
3. B3  43.4%
4. B1  34.2%

In order of falling “5-hydroxy-diclofenac (2) 1.58 mins” value:
1. B2  13.7%
2. B3  13.0%
3. B4  12.3%
4. B1  8.0%

In order of rising “Diclofenac (Substrate) 1.81 mins” value:
1. B2  34.8%
2. B3  41.6%
3. B4  41.6%
4. B1  57.0%

Same assay, conditions: diclofenac

With B1 the “regioselectivity of hydroxylation (product ratio 4′-hydroxydiclofenac : 5-hydroxydiclofenac)” value was “over four-fold”.

Same assay, conditions: diclofenac; ratio of UV peak areas at 275nm

In order of rising “Hydroxylated Ratio hydroxy 1:hydroxy 2” value:
1. B3  3.3
2. B2  3.7
3. B4  3.7
4. B1  4.3

Assay: Metabolism of celecoxib by P450 aluC09 and mutants
Format: biochemical
Details: percent of substrate being converted; 0.125 mg/ml, 27° C., 16-20 hours; [CYP] per enzyme as in Table 8
Description: as §1, §6

In order of falling “% conversions (avg) Celecoxib” value:
1. B3  3.9%
2. B4  3.7%
3. B1  3.6%
4. B2  2.2%
5. B5  1%

Assay: Metabolism of ruxolitinib by P450 aluC09 and mutants
Format: biochemical
Details: percent of substrate being converted; 0.125 mg/ml, 27° C., 16-20 hours; [CYP] per enzyme as in Table 8
Description: as §1, §6

In order of falling “% conversions (avg) Ruxolitinib” value:
1. B2  70.7%
2. B4  38.5%
3. B1  37.7%
4. B3  37.5%
5. B5  19%

Assay: Metabolism of ritonavir by P450 aluC09 and mutants
Format: biochemical
Details: percent of substrate being converted; 0.125 mg/ml, 27° C., 16-20 hours; [CYP] per enzyme as in Table 8
Description: as §1, §6

In order of falling “% conversions (avg) Ritonavir” value:
1. B2  100%
2. B4  53.3%
3. B1  30.4%
4. B5  28.2%
5. B3  20.9%

Assay: Metabolism of epothilone B by P450 aluC09 and mutants
Format: biochemical
Details: percent of substrate being converted; 0.125 mg/ml, 27° C., 16-20 hours; [CYP] per enzyme as in Table 8
Description: as §1, §6

In order of rising “% conversions (avg) Epothilone B” value:
1. B2  21.1%
2. B4  24.8%
3. B3  32.2%
4. B5  33.8%
5. B1  52.3%

Assay: Metabolism of buparvaquone by P450 aluC09 and mutants
Format: biochemical
Details: percent of substrate being converted; 0.125 mg/ml, 27° C., 16-20 hours; [CYP] per enzyme as in Table 8
Description: as §1, §6

With B2 the “% conversions (avg) Buparvaquone” value was 15.4%.

Assay: Hydroxylation / de-N-ethylation of napropamide catalysed by cytochrome P450 aluC09 and mutants
Format: biochemical
Details: % by UV peak area at 275 nm; 0.125 mg/ml substrate, 27° C., 16-20 hours
Description: as §1, §2, §3, §4, §5
Napropamide elutes at 1.76 minutes, unidentified metabolite (−2 Da) elutes at 1.90 minutes, desethyl-napropamide elutes at 1.62 minutes, hydroxy-napropamide 1 elutes at 1.53 minutes and hydroxy-napropamide 2 elutes at 1.52 minutes and the desethyl-hydroxy-napropamide product elutes at 1.41 minutes.

In order of falling “Desethyl Napropamide (1.62 min)” value:
1. B2  56.2%
2. B4  49.5%

In order of falling “Desethyl-hydroxy-Napropamide (1.41 min)” value:
1. B2  7.6%
2. B4  4.1%

In order of rising “Hydroxy-Napropamide (1) (1.53 min)” value:
1. B4  1.4%
2. B2  2.1%

In order of rising “Hydroxy-Napropamide (2), (1.52 min)” value:
1. B4  2.5%
2. B2  6.1%

In order of falling “M-2Da (unidentified) (1.89 min)” value:
1. B4  5.7%
2. B2  4.7%

In order of falling “Napropamide (substrate)” value:
1. B4  38.3%
2. B2  25.3%

Same assay, conditions: napropamide; ratio of UV peak areas

In order of rising “Hydroxylated Ratio 2:1” value:
1. B4  1.8
2. B2  2.9
